According to patent US20120114652A1 (AbbVie / Abbott, published 2012):

Experiments:
[1] = molecular target: T1, human PAI-1, active, wild-type, non-glycosylated (E. coli-derived) (human, UniProt P05121 24-402); test: cell-based or functional assay
cynomolgus PAI-1 [2] = molecular target: T2, cynomolgus PAI-1 (cynomolgus, UniProt P05121 24-402 (human entry), limits assumed); test: cell-based or functional assay
rat PAI-1 [3] = molecular target: T3, rat PAI-1 (rat, UniProt P20961 24-402); test: cell-based or functional assay
T3 sequence: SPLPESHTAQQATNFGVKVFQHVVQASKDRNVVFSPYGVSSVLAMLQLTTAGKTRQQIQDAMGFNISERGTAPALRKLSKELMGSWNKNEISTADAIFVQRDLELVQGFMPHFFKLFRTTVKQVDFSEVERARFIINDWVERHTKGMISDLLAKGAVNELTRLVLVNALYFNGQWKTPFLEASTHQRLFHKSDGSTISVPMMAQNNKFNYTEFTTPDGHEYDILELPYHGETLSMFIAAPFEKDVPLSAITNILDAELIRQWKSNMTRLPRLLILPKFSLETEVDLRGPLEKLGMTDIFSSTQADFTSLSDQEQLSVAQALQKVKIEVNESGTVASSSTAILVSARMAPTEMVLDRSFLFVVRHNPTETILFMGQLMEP

mouse PAI-1 [4] = molecular target: T4, mouse PAI-1 (mouse, UniProt P22777 24-401); test: cell-based or functional assay
T4 sequence: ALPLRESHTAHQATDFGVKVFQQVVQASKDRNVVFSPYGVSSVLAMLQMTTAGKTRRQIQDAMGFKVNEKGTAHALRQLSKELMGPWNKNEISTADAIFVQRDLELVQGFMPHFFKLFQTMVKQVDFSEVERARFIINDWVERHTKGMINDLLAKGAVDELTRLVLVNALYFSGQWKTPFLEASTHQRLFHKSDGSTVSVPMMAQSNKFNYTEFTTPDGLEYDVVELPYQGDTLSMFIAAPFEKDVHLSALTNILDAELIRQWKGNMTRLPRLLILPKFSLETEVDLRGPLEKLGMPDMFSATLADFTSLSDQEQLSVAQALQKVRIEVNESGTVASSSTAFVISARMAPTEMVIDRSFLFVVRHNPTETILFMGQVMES

[5] = molecular target: glycosylated active human PAI-1 produced by CHO cells (human, UniProt P05121 24-402, N-glycosylated (CHO-produced)); test: cell-based or functional assay
[6] = molecular target: T1, human PAI-1, active, wild-type, …; test: cell-based or functional assay; remark: listed apart in the source
rat PAI-1 [7] = molecular target: T3, rat PAI-1; test: cell-based or functional assay; remark: listed apart in the source
mouse PAI-1 [8] = molecular target: T4, mouse PAI-1; test: cell-based or functional assay; remark: listed apart in the source
rabbit PAI-1 = molecular target: T5, rabbit PAI-1 (rabbit); test: competition ELISA (DELFIA), IgG coated, competitor titrated against biotinylated active human PAI-1
T5 chain: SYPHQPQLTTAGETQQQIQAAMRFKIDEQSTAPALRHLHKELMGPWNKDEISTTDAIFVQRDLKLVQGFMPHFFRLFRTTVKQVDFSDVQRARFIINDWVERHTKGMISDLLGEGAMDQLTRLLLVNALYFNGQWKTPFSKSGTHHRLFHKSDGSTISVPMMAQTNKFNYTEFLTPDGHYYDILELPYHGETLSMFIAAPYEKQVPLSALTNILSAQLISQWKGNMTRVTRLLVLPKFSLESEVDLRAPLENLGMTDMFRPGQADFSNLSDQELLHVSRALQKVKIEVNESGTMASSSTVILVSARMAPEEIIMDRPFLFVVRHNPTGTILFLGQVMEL

latent human PAI-1 = molecular target: T6, latent human PAI-1 (human, UniProt P05121 24-402); test: as above
T6 construct: also called latent PAI-1

rat PAI-1 [9] = molecular target: T3, rat PAI-1; test: as above
mouse PAI-1 [10] = molecular target: T4, mouse PAI-1; test: as above
[11] = molecular target: T1, human PAI-1, active, wild-type, …; test: cell-based or functional assay; remark: listed apart in the source
cynomolgus PAI-1 [12] = molecular target: T2, cynomolgus PAI-1; test: cell-based or functional assay; remark: listed apart in the source
mouse PAI-1 [13] = molecular target: T4, mouse PAI-1; test: cell-based or functional assay; remark: listed apart in the source
rat PAI-1 [14] = molecular target: T3, rat PAI-1; test: cell-based or functional assay; remark: listed apart in the source
[15] = molecular target: T1, human PAI-1, active, wild-type, …; test: SPR BIAcore, CAT-1001 amino-linked to CM3 chip, human wild-type PAI-1 as analyte, 1:1 Langmuir
PAI-2 = PAI-2 (UniProt P05120 1-415, limits assumed); test: competition ELISA (DELFIA): PICK167_A01-fgl IgG1 (CAT-1001) coated on the plate, biotinylated human PAI-1, titration of the unlabelled test antigen
PAI-3 = molecular target: T7, PAI-3 (UniProt P05154 26-406, limits assumed); test: as above
T7 sequence (looked up): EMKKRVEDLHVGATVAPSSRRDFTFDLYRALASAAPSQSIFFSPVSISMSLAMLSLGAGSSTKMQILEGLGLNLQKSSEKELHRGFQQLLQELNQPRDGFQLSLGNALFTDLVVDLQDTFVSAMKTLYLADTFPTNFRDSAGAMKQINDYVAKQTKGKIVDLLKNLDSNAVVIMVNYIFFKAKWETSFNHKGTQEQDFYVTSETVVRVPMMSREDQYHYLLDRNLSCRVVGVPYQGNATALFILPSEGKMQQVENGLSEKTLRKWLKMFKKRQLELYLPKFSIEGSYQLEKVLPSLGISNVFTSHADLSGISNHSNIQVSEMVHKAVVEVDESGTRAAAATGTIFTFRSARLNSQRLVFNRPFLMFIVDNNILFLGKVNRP

antithrombin III = antithrombin III (UniProt P01008 33-464); test: as above
α1-antitrypsin = molecular target: T8, α1-antitrypsin (UniProt P01009 25-418); test: as above
T8 construct: also called alpha-1-antitrypsin

α1-antichymotrypsin = molecular target: T9, α1-antichymotrypsin (UniProt P01011 24-423); test: as above
T9 sequence (looked up): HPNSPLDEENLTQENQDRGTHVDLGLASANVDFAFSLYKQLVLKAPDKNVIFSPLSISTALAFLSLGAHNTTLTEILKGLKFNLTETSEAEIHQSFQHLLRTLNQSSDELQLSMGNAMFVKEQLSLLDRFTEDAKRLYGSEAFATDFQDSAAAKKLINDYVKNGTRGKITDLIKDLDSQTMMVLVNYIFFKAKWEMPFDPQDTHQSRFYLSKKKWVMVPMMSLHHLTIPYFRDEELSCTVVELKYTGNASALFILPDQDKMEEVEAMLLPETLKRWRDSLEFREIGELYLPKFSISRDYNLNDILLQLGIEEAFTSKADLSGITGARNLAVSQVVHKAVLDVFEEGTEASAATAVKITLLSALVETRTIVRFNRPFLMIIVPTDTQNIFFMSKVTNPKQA

α2-antiplasmin = molecular target: T10, α2-antiplasmin (UniProt P08697 40-491, limits assumed); test: as above
T10 sequence (looked up): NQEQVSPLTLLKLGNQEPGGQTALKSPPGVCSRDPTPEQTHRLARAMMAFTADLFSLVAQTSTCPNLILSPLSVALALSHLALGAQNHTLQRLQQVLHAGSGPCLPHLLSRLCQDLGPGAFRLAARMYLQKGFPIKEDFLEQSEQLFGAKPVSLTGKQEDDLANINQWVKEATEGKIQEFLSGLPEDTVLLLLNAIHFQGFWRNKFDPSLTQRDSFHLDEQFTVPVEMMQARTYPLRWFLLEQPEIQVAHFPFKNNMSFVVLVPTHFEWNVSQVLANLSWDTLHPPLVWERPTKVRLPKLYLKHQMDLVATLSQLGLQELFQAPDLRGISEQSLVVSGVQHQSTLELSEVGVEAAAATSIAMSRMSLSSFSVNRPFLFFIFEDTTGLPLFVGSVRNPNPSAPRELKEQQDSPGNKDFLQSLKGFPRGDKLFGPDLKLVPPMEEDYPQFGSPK

B1: Antibody 20, IgG1, not germlined (antibody, V domains shown)
VH: QVQLQQSGAEVKKPGSSVKVSCKASGGTFSSYAISWVRQAPGQGLEWMGGIIPTFGTANYAQKFQGRVTITADESTSTAYMELSSLRSEDTAVYYCAREKRQWLEGHFDYWGRGTLVTVSS
VL: DIQMTQSPSTLSASVGDRVTITCRASEGIYHELAWYQQKPGKAPKLLIYRASSLASGVPSRFSGSRSGTEFTLTISSLQPDDFATYYCQQYSDYPLTFGGGTKVEIK
notes: whole IgG1; also called Ab 20
IC50 chromogenic [1]: 1.6 nM | IC50 chromogenic (cynomolgus PAI-1 [2]): 0.8 nM | IC50 ratio cyno/human (cynomolgus PAI-1 [2]): 0.5 | IC50 chromogenic (rat PAI-1 [3]): 2.9 nM | IC50 ratio rat/human (rat PAI-1 [3]): 1.8 | IC50 chromogenic (mouse PAI-1 [4]): 1.4 nM | IC50 ratio mouse/human (mouse PAI-1 [4]): 0.9 | IC50 chromogenic, hu glyco [5]: 1.3 nM | IC50 HT-1080 Exo PAI-1 [6]: 7.3 nM | IC50 HT-1080 Exo PAI-1 (rat PAI-1 [7]): 16.2 nM | IC50 HT-1080 Exo PAI-1 (mouse PAI-1 [8]): 5.9 nM | IC50 ratio rabbit/wt (rabbit PAI-1): 9.1 | IC50 ratio latent/wt (latent human PAI-1): 7.5 | IC50 ratio rat/wt (rat PAI-1 [9]): 2.3 | IC50 ratio mouse/wt (mouse PAI-1 [10]): 7.6

B2: Antibody 08, scFv (scFv, V domains shown)
VH: QVQLVQSGAEVKKPGSSVKVSCKASGGTFSSYAISWVRQAPGQGLEWMGGIIPTFGTANYAQKFQGRVTITADESTSTAYMELSSLRSEDTAVYYCARERRQWLEGHFDYWGRGTLVTVSS
VL: DIQMTQSPSTLSASVGDRVTITCRASEGIYHNLAWYQQKPGKAPKLLIYKASSLASGVPSRFSGSRSGTEFTLTISSLQPDDFATYYCQQYSNYPLTFGGGTKVEIK
IC50 chromogenic (FIG. 2a) [11]: 3.6 nM | IC50 chromogenic (FIG. 2b) (cynomolgus PAI-1 [12]): 0.8 nM | IC50 chromogenic (FIG. 2d) (mouse PAI-1 [13]): 2.6 nM | IC50 chromogenic [1]: 3.2 nM | IC50 chromogenic (cynomolgus PAI-1 [2]): 1 nM | IC50 chromogenic (rat PAI-1 [3]): 3 nM | IC50 HT-1080 Exo PAI-1 [6]: 23.7 nM | IC50 HT-1080 Exo PAI-1 (rat PAI-1 [7]): 50.1 nM | IC50 HT-1080 Exo PAI-1 (mouse PAI-1 [8]): 26.2 nM

B3: PICK167_A01-fgl IgG1 (CAT-1001) (antibody, V domains shown)
VH: QVQLVQSGAEVKKPGSSVKVSCKASGGTFSSYAISWVRQAPGQGLEWMGGIIPTFGTANYAQKFQGRVTITADESTSTAYMELSSLRSEDTAVYYCARERRQWLEGHFDYWGRGTLVTVSS
VL: DIQMTQSPSTLSASVGDRVTITCRASEGIYHNLAWYQQKPGKAPKLLIYKASSLASGVPSRFSGSRSGTEFTLTISSLQPDDFATYYCQQYSNYPLTFGGGTKVEIKR
notes: fully germlined variant, made as an IgG1 only; also called PICK67A01-fgl
IC50, HT1080 plasminogen activation assay [11]: 13.2 nM | IC50, PAI-1:tPA functional assay [11]: 1.65 nM | pIC50, HT1080 plasminogen activation assay [11]: 7.87 | IC50, PAI-1:tPA functional assay (cynomolgus PAI-1 [12]): 0.77 nM | IC50, HT1080 plasminogen activation assay (rat PAI-1 [14]): 22.8 nM | IC50, PAI-1:tPA functional assay (rat PAI-1 [14]): 3.07 nM | pIC50, HT1080 plasminogen activation assay (rat PAI-1 [14]): 7.64 | Kd [15]: 0.016 nM | binding result (PAI-2): no binding (tested: log M about -6.3 (about 5e-7 M)) | binding result (PAI-3): no binding (tested: log M about -6.3 (about 5e-7 M)) | binding result (antithrombin III): no binding (tested: log M about -6.3 (about 5e-7 M)) | binding result (α1-antitrypsin): no binding (tested: log M about -6.3 (about 5e-7 M)) | binding result (α1-antichymotrypsin): no binding (tested: log M about -6.3 (about 5e-7 M)) | binding result (α2-antiplasmin): no binding (tested: log M about -6.3 (about 5e-7 M))
